Read-outs that look alike come from different tables or passages of the source.
What was measured:
Assay in all cases: AUC
[1] = molecular target: Bac-Cys-ELP1
[2] = molecular target: Bac-Cys-ELP1; remark: listed apart in the source
[3] = molecular target: SynB1-Cys-ELP1
[4] = molecular target: SynB1-Cys-ELP1; remark: listed apart in the source

Bac-Cys-ELP1 showed a Ka [1] of 552 M⁻¹ and a Ka [2] of 1290 M⁻¹.
Substance SynB1-Cys-ELP1 has a Ka [3] of 597 M⁻¹ and a Ka [4] of 1480 M⁻¹.
